Here are results for one protein from FireProtDB (doi:10.1093/protein/14.11.891).

For this data set the following is noted: Salmonella typhimurium (strain LT2 / SGSC1412 / ATCC 700720), pH 7, CD, Potassium phosphate 10 mM, reversible: yes, whole UniProt chain shown.

B1: Sialidase wild type, P29768 (protein)
chain: MTVEKSVVFKAEGEHFTDQKGNTIVGSGSGGTTKYFRIPAMCTTSKGTIVVFADARHNTASDQSFIDTAAARSTDGGKTWNKKIAIYNDRVNSKLSRVMDPTCIVANIQGRETILVMVGKWNNNDKTWGAYRDKAPDTDWDLVLYKSTDDGVTFSKVETNIHDIVTKNGTISAMLGGVGSGLQLNDGKLVFPVQMVRTKNITTVLNTSFIYSTDGITWSLPSGYCEGFGSENNIIEFNASLVNNIRNSGLRRSFETKDFGKTWTEFPPMDKKVDNRNHGVQGSTITIPSGNKLVAAHSSAQNKNNDYTRSDISLYAHNLYSGEVKLIDDFYPKVGNASGAGYSCLSYRKNVDKETLYVVYEANGSIEFQDLSRHLPVIKSYN
What is called Tm is the temperature at the midpoint of the melting transition. Consider B1, for which, under “25 °C, GdnHCl”, the “denaturant midpoint (higher = more stable)” value was found to be 1.33 M and the unfolding free energy was 4.24 kcal/mol. Moreover, the Tm (Thermal) amounted to 57 °C.
